Laboratory results: patent US20140087995A1 (published 2014)
One block for each binder: values may come before it. Numbered stars: 1 amine (or outer) side, 2 acyl side, 3 side chain; on linkers, the order of the positions; unused ones are H or OH. Bridge positions count the residues as written; N and C are the ends. Side chains are listed from the residue outwards. Ends that are not written are not given here. * marks the point of attachment. C20 diacid = O=C(O)CCCCCCCCCCCCCCCCCCC(=O)*; γGlu = O=C(O)[C@H](CCC(=O)[*:2])N[*:1]

Columns and labels:
rat calcitonin receptor [1] = target: T1, rat calcitonin receptor (rat, UniProt P32214 25-516); test: ratio IC50 rat calcitonin receptor / IC50 rat amylin receptor
T1 construct: whole, on cells; Cell membranes of transiently transfected BHK tk'ts 13 cells (Assay VIII); also called rCTR; rCT
T1 sequence (looked up): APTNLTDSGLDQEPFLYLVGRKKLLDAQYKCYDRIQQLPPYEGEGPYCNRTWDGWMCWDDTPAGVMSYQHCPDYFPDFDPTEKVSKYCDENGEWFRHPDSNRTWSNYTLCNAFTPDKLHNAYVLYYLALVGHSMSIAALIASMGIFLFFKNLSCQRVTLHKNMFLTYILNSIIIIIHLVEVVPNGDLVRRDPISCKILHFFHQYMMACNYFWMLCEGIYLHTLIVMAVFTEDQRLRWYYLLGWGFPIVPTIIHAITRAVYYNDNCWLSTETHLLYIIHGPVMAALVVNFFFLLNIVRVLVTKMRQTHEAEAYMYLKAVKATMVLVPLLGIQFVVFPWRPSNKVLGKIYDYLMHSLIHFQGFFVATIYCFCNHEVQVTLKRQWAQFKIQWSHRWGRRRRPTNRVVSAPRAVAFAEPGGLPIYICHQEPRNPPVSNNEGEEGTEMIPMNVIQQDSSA

rat calcitonin receptor [2] = target: T1, rat calcitonin receptor; test: SPA competition vs 125I-calcitonin, membranes with rat CTR (Assay VIII)
[3] = target: T2, rat amylin receptor (rat calcitonin receptor + rat RAMP 3) (rat, UniProt P32214 25-516; Q9JJ73 23-147); test: SPA competition vs 125I-rat amylin, membranes with rat CTR + rat RAMP3 (Assay VI)
T2 construct: whole, on cells; Cell membranes of transiently transfected BHK tk'ts 13 cells (Assay VI); also called rAmylin-R; rat amylin 3(a) receptor
T2 sequence (looked up) 1: T1 sequence (looked up)
T2 sequence (looked up) 2: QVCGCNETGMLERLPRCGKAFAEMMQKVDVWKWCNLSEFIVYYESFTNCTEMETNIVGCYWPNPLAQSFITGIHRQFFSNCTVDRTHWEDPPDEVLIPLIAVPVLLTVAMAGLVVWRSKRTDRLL

[4] = target: T3, human amylin receptor (amylin 3(a) receptor: human calcitonin receptor plus RAMP-3) (human, UniProt P30988 25-474; O60896 24-148); test: SPA competition binding, displacement of 125I-rat amylin, membranes of BHK amylin 3(a)/CRE-luc cells
T3 construct: whole, on cells; functional assay (II)a used the whole cells; also called hAmylin-R; hAmylinR
T3 sequence (looked up) 1: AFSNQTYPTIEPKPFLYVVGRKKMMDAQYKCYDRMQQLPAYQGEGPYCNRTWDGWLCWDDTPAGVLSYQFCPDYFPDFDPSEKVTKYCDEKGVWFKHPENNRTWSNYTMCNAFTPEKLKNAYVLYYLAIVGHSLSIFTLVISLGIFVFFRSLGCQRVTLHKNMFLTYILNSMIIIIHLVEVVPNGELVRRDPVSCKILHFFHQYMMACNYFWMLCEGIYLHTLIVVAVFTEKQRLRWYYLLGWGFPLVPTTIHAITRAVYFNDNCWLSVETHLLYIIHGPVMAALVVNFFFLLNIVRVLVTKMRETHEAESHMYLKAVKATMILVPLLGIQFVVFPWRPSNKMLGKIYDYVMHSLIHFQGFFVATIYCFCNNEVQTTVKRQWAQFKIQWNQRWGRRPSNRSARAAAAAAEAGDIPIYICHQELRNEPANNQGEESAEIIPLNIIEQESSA
T3 sequence (looked up) 2: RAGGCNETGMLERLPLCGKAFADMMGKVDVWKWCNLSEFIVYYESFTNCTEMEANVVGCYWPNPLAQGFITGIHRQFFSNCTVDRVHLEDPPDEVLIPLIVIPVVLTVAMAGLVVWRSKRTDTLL
Method: The binding assay was performed using scintillation proximity assay (SPA) beads (RPNQ0001) from PerkinElmer and cell membranes from the Amylin 3(a)/CRE-luc cells (as described in Assay (II)) were used. Membranes were prepared in the following way; the cells were rinsed with PBS and incubated with Versene for approximately 5 min before harvesting. The cells were flushed with PBS and the cell-suspension was centrifuged for 5 min at 1000 rpm. Cells were homogenized (ultrathurrax) in a buffer containing 20 mM Na-HEPES and 10 mM EDTA (pH 7.4) and centrifuged at 20.000 rpm for 15 min. The resulting pellet was resuspended, homogenized and centrifuged (20.000 rpm, 15 min) in a buffer containing 20 mM Na-HEPES and 0.1 mM EDTA (pH 7.4, buffer 2). The resulting pellet was resuspended in buffer 2 and protein concentration was measured (BCA protein Assay, Pierce). The homogenate was kept cold during the whole procedure. The membranes were kept at −80° C. until use. The assay was performed in a 384 well Optiplate (PerkinElmer) in a total volume of 40 ul. Membranes were mixed with SPA beads. Final concentration of membranes 35 ng/μL final and SPA beads was 0.05 mg/well. Test-compounds were dissolved in DMSO and further diluted in assay buffer (50 mM Hepes, pH 7.4, 1 mM CaCl2, 5 mM MgCl₂, 0.1% OA and 0.02% Tween20). […] The final mixture was incubated with shaking at 400 rpm for 120 min at 25° C. prior to centrifugation (1500 rpm, 10 min). Samples were analyzed on TopCounter™ (Packard). The IC₅₀ was calculated using (one site binding competition analysis) GraphPad Prism5 as a measure of receptor affinity.

[5] = target: T4, human calcitonin receptor (human, UniProt P30988 25-474); test: cell-based or functional assay
T4 sequence (looked up): T3 sequence (looked up) 1

[6] = target: T3, human amylin receptor (amylin 3(a) …); test: cell-based or functional assay

- Ratio rCT/rAmylin binding (rat calcitonin receptor [1]): 122
- IC50 (rat calcitonin receptor [2]): 26.3 nM
- IC50 [3]: 0.215 nM
B1: N^ε1-[(4S)-4-carboxy-4-(19-carboxynonadecanoylamino)butanoyl]-[Arg17,Pro21,Pro27,His35]-h-amylin (peptide)
peptide: K([γGlu-C20 diacid])CNTATCATQRLANFLRHSSPNFGAIPSSTNVGSHTY-NH2
modifications: disulfide 2-7; N-terminus assumed
SMILES: CC[C@H](C)[C@H](NC(=O)[C@H](C)NC(=O)CNC(=O)[C@H](Cc1ccccc1)NC(=O)[C@H](CC(N)=O)NC(=O)[C@@H]1CCCN1C(=O)[C@H](CO)NC(=O)[C@H](CO)NC(=O)[C@H](Cc1c[nH]cn1)NC(=O)[C@H](CCCNC(=N)N)NC(=O)[C@H](CC(C)C)NC(=O)[C@H](Cc1ccccc1)NC(=O)[C@H](CC(N)=O)NC(=O)[C@H](C)NC(=O)[C@H](CC(C)C)NC(=O)[C@H](CCCNC(=N)N)NC(=O)[C@H](CCC(N)=O)NC(=O)[C@@H](NC(=O)[C@H](C)NC(=O)[C@@H]1CSSC[C@H](NC(=O)[C@@H](N)CCCCNC(=O)CC[C@H](NC(=O)CCCCCCCCCCCCCCCCCCC(=O)O)C(=O)O)C(=O)N[C@@H](CC(N)=O)C(=O)N[C@@H]([C@@H](C)O)C(=O)N[C@@H](C)C(=O)N[C@@H]([C@@H](C)O)C(=O)N1)[C@@H](C)O)C(=O)N1CCC[C@H]1C(=O)N[C@@H](CO)C(=O)N[C@@H](CO)C(=O)N[C@H](C(=O)N[C@@H](CC(N)=O)C(=O)N[C@H](C(=O)NCC(=O)N[C@@H](CO)C(=O)N[C@@H](Cc1c[nH]cn1)C(=O)N[C@H](C(=O)N[C@@H](Cc1ccc(O)cc1)C(N)=O)[C@@H](C)O)C(C)C)[C@@H](C)O
notes: Acylated analogue of human amylin; also called compound 60

- Ratio rCT/rAmylin binding (rat calcitonin receptor [1]): 119
- IC50 (rat calcitonin receptor [2]): 62 nM
- IC50 [3]: 0.523 nM
B2: N^ε1-[(4S)-4-carboxy-4-(19-carboxynonadecanoylamino)butanoyl]-[Glu14,Arg17,Pro21,Pro27,Arg35]-h-amylin (peptide)
peptide: K([γGlu-C20 diacid])CNTATCATQRLAEFLRHSSPNFGAIPSSTNVGSRTY-NH2
modifications: disulfide 2-7; N-terminus assumed
SMILES: CC[C@H](C)[C@H](NC(=O)[C@H](C)NC(=O)CNC(=O)[C@H](Cc1ccccc1)NC(=O)[C@H](CC(N)=O)NC(=O)[C@@H]1CCCN1C(=O)[C@H](CO)NC(=O)[C@H](CO)NC(=O)[C@H](Cc1c[nH]cn1)NC(=O)[C@H](CCCNC(=N)N)NC(=O)[C@H](CC(C)C)NC(=O)[C@H](Cc1ccccc1)NC(=O)[C@H](CCC(=O)O)NC(=O)[C@H](C)NC(=O)[C@H](CC(C)C)NC(=O)[C@H](CCCNC(=N)N)NC(=O)[C@H](CCC(N)=O)NC(=O)[C@@H](NC(=O)[C@H](C)NC(=O)[C@@H]1CSSC[C@H](NC(=O)[C@@H](N)CCCCNC(=O)CC[C@H](NC(=O)CCCCCCCCCCCCCCCCCCC(=O)O)C(=O)O)C(=O)N[C@@H](CC(N)=O)C(=O)N[C@@H]([C@@H](C)O)C(=O)N[C@@H](C)C(=O)N[C@@H]([C@@H](C)O)C(=O)N1)[C@@H](C)O)C(=O)N1CCC[C@H]1C(=O)N[C@@H](CO)C(=O)N[C@@H](CO)C(=O)N[C@H](C(=O)N[C@@H](CC(N)=O)C(=O)N[C@H](C(=O)NCC(=O)N[C@@H](CO)C(=O)N[C@@H](CCCNC(=N)N)C(=O)N[C@H](C(=O)N[C@@H](Cc1ccc(O)cc1)C(N)=O)[C@@H](C)O)C(C)C)[C@@H](C)O
notes: Acylated analogue of human amylin; also called compound 51

- Ratio rCT/rAmylin binding (rat calcitonin receptor [1]): 42.8
- IC50 (rat calcitonin receptor [2]): 18 nM
- IC50 [3]: 0.42 nM
B3: N^ε1-[(4S)-4-carboxy-4-(19-carboxynonadecanoylamino)butanoyl]-[His14,Arg17,Pro21,Pro27,Pro31]-h-amylin (peptide)
peptide: K([γGlu-C20 diacid])CNTATCATQRLAHFLRHSSPNFGAIPSSTPVGSNTY-NH2
modifications: disulfide 2-7; N-terminus assumed
SMILES: CC[C@H](C)[C@H](NC(=O)[C@H](C)NC(=O)CNC(=O)[C@H](Cc1ccccc1)NC(=O)[C@H](CC(N)=O)NC(=O)[C@@H]1CCCN1C(=O)[C@H](CO)NC(=O)[C@H](CO)NC(=O)[C@H](Cc1c[nH]cn1)NC(=O)[C@H](CCCNC(=N)N)NC(=O)[C@H](CC(C)C)NC(=O)[C@H](Cc1ccccc1)NC(=O)[C@H](Cc1c[nH]cn1)NC(=O)[C@H](C)NC(=O)[C@H](CC(C)C)NC(=O)[C@H](CCCNC(=N)N)NC(=O)[C@H](CCC(N)=O)NC(=O)[C@@H](NC(=O)[C@H](C)NC(=O)[C@@H]1CSSC[C@H](NC(=O)[C@@H](N)CCCCNC(=O)CC[C@H](NC(=O)CCCCCCCCCCCCCCCCCCC(=O)O)C(=O)O)C(=O)N[C@@H](CC(N)=O)C(=O)N[C@@H]([C@@H](C)O)C(=O)N[C@@H](C)C(=O)N[C@@H]([C@@H](C)O)C(=O)N1)[C@@H](C)O)C(=O)N1CCC[C@H]1C(=O)N[C@@H](CO)C(=O)N[C@@H](CO)C(=O)N[C@H](C(=O)N1CCC[C@H]1C(=O)N[C@H](C(=O)NCC(=O)N[C@@H](CO)C(=O)N[C@@H](CC(N)=O)C(=O)N[C@H](C(=O)N[C@@H](Cc1ccc(O)cc1)C(N)=O)[C@@H](C)O)C(C)C)[C@@H](C)O
notes: Acylated analogue of human amylin; also called compound 62

- IC50 [4]: 0.794 nM
- hCTR funct. EC50 (pM) [5]: 1030 pM
- Ratio hCT/hAmylin funct. [6]: 3.8
- hAmylin-R funct. EC50 (pM) [6]: 270 pM
B4: N^α1N^α1-[(4S)-4-carboxy-4-(19-carboxynonadecanoylamino)butanoyl]-[Glu14,Arg17,Pro21,Pro27,Glu35]-h-amylin (peptide)
peptide: {C20 diacid-γGlu}-KCNTATCATQRLAEFLRHSSPNFGAIPSSTNVGSETY-NH2
modifications: disulfide 2-7
SMILES: CC[C@H](C)[C@H](NC(=O)[C@H](C)NC(=O)CNC(=O)[C@H](Cc1ccccc1)NC(=O)[C@H](CC(N)=O)NC(=O)[C@@H]1CCCN1C(=O)[C@H](CO)NC(=O)[C@H](CO)NC(=O)[C@H](Cc1c[nH]cn1)NC(=O)[C@H](CCCNC(=N)N)NC(=O)[C@H](CC(C)C)NC(=O)[C@H](Cc1ccccc1)NC(=O)[C@H](CCC(=O)O)NC(=O)[C@H](C)NC(=O)[C@H](CC(C)C)NC(=O)[C@H](CCCNC(=N)N)NC(=O)[C@H](CCC(N)=O)NC(=O)[C@@H](NC(=O)[C@H](C)NC(=O)[C@@H]1CSSC[C@H](NC(=O)[C@H](CCCCN)NC(=O)CC[C@H](NC(=O)CCCCCCCCCCCCCCCCCCC(=O)O)C(=O)O)C(=O)N[C@@H](CC(N)=O)C(=O)N[C@@H]([C@@H](C)O)C(=O)N[C@@H](C)C(=O)N[C@@H]([C@@H](C)O)C(=O)N1)[C@@H](C)O)C(=O)N1CCC[C@H]1C(=O)N[C@@H](CO)C(=O)N[C@@H](CO)C(=O)N[C@H](C(=O)N[C@@H](CC(N)=O)C(=O)N[C@H](C(=O)NCC(=O)N[C@@H](CO)C(=O)N[C@@H](CCC(=O)O)C(=O)N[C@H](C(=O)N[C@@H](Cc1ccc(O)cc1)C(N)=O)[C@@H](C)O)C(C)C)[C@@H](C)O
notes: also called compound 22

- IC50 [4]: 0.871 nM
- hCTR funct. EC50 (pM) [5]: 3020 pM
- Ratio hCT/hAmylin funct. [6]: 8.9
- hAmylin-R funct. EC50 (pM) [6]: 340 pM
B5: N^α1-[(4S)-4-carboxy-4-(19-carboxynonadecanoylamino)butanoyl]-[Arg17,Pro21,Pro27,Glu35]-h-amylin (peptide)
peptide: KCNTATCATQRLANFLRHSSPNFGAIPSSTNVGSETY
modifications: C20 diacid-gGlu on the alpha amino group of the N-terminal residue (Lys1); disulfide Cys2-Cys7 and C-terminal amide as in human amylin
notes: also called compound 23
